This is an account of results in patent US20050260207A1 (published 2005).

This test deals with recombinant human cathepsin B (human, UniProt P07858 80-333). As to the kind of experiment: Western blot of recombinant human cathepsin B, goat anti-human IgG-HRP as secondary antibody. The text has this:
A: polyacrylamide gel electrophoresis of recombinant human cathepsin B (1) and of standards (2); B: Western blot—cathepsin B (1) stained with chimeric 2A2 antibody. Goat anti-human antibody (IgG) conjugated with horseradish peroxidase was used as a secondary antibody. As the substrate 0.05% diaminobenzidine (DAB) and 0.01% of H₂O₂ in 0.05M Tris/HCl buffer, pH 7.5 were used.

B1: chimeric 2A2 antibody, expressed in Chinese hamster ovary (CHO) cells (antibody, V domains shown)
VH: QVQLQQSGAELVRSGASIKLSCTASGFNIKDYYMHWVKQRPEQGLEWIGWIDPENGDTEYAPKFRGKATMTADTSSKTAYLQLSSLTSEDTAVYYCNARRHGYYEMDYWGQGTSVTVSS
VL: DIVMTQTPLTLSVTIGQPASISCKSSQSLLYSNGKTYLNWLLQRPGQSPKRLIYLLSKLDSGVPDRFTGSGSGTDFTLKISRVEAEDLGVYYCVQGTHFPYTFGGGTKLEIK
notes: A secretion leader was used for expression and is not part of the mature protein; also called chimeric antibody 2A2; 2A2 chimeric antibody; not shown: human IgG1 heavy chain constant region (human Cgamma1 region from pUC/hIgG1); human kappa light chain constant region (human Ckappa gene from pUC/hCK)
In the case of B1, the binding result is “binds”.
